Reference: the Immune Epitope Database (IEDB)
Blank lines part the entries; values can stand above or below the sequence they belong to.

Columns and labels:
HLA-A*23:01 = experiment: IEDB peptide-MHC binding, purified MHC/direct/fluorescence; filed as Kd, often an IC50 or EC50 that approximates it; ≥ and ≤ were set here for values at or beyond the usual limits of such assays
HLA-A*24:03 = experiment: as above; conditions: source organism: Vibrio cholerae
HLA-A*24:02 = experiment: IEDB peptide-MHC binding, purified MHC/competitive/fluorescence; ≥ and ≤ were set here for values at or beyond the usual limits of such assays
HLA-B*15:01 [1] = experiment: as above
HLA-A*01:01 = experiment: IEDB peptide-MHC binding, purified MHC/competitive/fluorescence; filed as Kd, often an IC50 or EC50 that approximates it; ≥ and ≤ were set here for values at or beyond the usual limits of such assays
HLA-A*03:01 [2] = experiment: as above
HLA-B*35:01 [3] = experiment: as above
HLA-B*07:02 [4] = experiment: IEDB peptide-MHC binding, purified MHC/competitive/radioactivity; filed as Kd, often an IC50 or EC50 that approximates it; ≥ and ≤ were set here for values at or beyond the usual limits of such assays
HLA-B*35:01 [5] = experiment: as above
HLA-B*51:01 [6] = experiment: as above
HLA-B*53:01 = experiment: as above
HLA-B*54:01 = experiment: as above
HLA-C*05:01 = experiment: IEDB peptide-MHC binding, purified MHC/direct/fluorescence; filed as Kd, often an IC50 or EC50 that approximates it; ≥ and ≤ were set here for values at or beyond the usual limits of such assays
HLA-A*02:11 = experiment: as above; conditions: source organism: Dengue virus 2 Thailand/16681/84
HLA-A*02:12 = experiment: as above; conditions: source organism: Dengue virus 2 Thailand/16681/84
HLA-B*15:17 = experiment: as above; conditions: source organism: Francisella tularensis subsp. holarctica LVS
HLA-B*57:01 = experiment: as above; conditions: source organism: Francisella tularensis subsp. holarctica LVS
HLA-B*58:01 = experiment: as above; conditions: source organism: Francisella tularensis subsp. holarctica LVS
HLA-A*02:01 = experiment: IEDB peptide-MHC binding, purified MHC/competitive/fluorescence; ≥ and ≤ were set here for values at or beyond the usual limits of such assays
HLA-A*03:01 [7] = experiment: as above
HLA-B*15:01 [8] = experiment: IEDB peptide-MHC binding, purified MHC/direct/fluorescence; filed as Kd, often an IC50 or EC50 that approximates it; ≥ and ≤ were set here for values at or beyond the usual limits of such assays; conditions: source organism: Mycobacterium tuberculosis C
HLA-A*11:01 [9] = experiment: IEDB peptide-MHC binding, purified MHC/competitive/fluorescence; ≥ and ≤ were set here for values at or beyond the usual limits of such assays
HLA-B*07:02 [10] = experiment: IEDB peptide-MHC binding, purified MHC/direct/fluorescence; filed as Kd, often an IC50 or EC50 that approximates it; ≥ and ≤ were set here for values at or beyond the usual limits of such assays; conditions: source organism: Mycobacterium tuberculosis C
HLA-B*51:01 [11] = experiment: IEDB peptide-MHC binding, purified MHC/competitive/fluorescence; filed as Kd, often an IC50 or EC50 that approximates it; ≥ and ≤ were set here for values at or beyond the usual limits of such assays; conditions: source organism: Mycobacterium tuberculosis H37Ra
HLA-B*15:42 = experiment: as above
HLA-B*45:06 = experiment: as above
HLA-B*83:01 = experiment: as above
HLA-A*11:01 [12] = experiment: IEDB peptide-MHC binding, purified MHC/competitive/radioactivity; filed as Kd, often an IC50 or EC50 that approximates it; ≥ and ≤ were set here for values at or beyond the usual limits of such assays; conditions: source organism: Vaccinia virus WR
HLA-A*31:01 = experiment: as above; conditions: source organism: Vaccinia virus WR
HLA-A*33:01 = experiment: as above; conditions: source organism: Vaccinia virus WR
HLA-A*68:01 = experiment: as above; conditions: source organism: Vaccinia virus WR
HLA-B*18:01 = experiment: IEDB peptide-MHC binding, purified MHC/direct/fluorescence; filed as Kd, often an IC50 or EC50 that approximates it; ≥ and ≤ were set here for values at or beyond the usual limits of such assays; conditions: source organism: Yellow fever virus 17D
[13] = source organism: Vaccinia virus Copenhagen
[14] = source organism: Yersinia pestis Nepal516
[15] = source organism: Vaccinia virus WR
[16] = source organism: SARS coronavirus Tor2
[17] = source organism: Lymphocytic choriomeningitis virus (strain Armstrong)
[18] = source organism: Sudan ebolavirus
[19] = source organism: Zaire ebolavirus
[20] = source organism: Mycobacterium tuberculosis H37Ra
[21] = source organism: Mammarenavirus choriomeningitidis
[22] = source organism: Vibrio cholerae RC385
[23] = source organism: Triticum aestivum
[24] = source organism: Yellow fever virus
[25] = source organism: Vaccinia virus

Sequence: RYQAQQVEW
Kd (HLA-A*23:01; source organism: Vibrio cholerae): 0.0046 µM
Kd (HLA-A*24:03): 0.0016 µM

Sequence: IMLEGETKL
IC50 (HLA-A*24:02; [13]): 47.2 µM
IC50 (HLA-B*15:01 [1]; [13]): 42.5 µM

Sequence: MVASQLARY
Kd (HLA-A*01:01; [14]): 1.23 µM
Kd (HLA-A*03:01 [2]; [14]): 0.907 µM
Kd (HLA-B*35:01 [3]; [14]): 0.0009 µM

Sequence: VPNITISSNA
Kd (HLA-B*07:02 [4]; [15]): 4.2 µM
Kd (HLA-B*35:01 [5]; [15]): ≥ 69.9 µM
Kd (HLA-B*51:01 [6]; [15]): ≥ 69.6 µM
Kd (HLA-B*53:01; [15]): ≥ 69.9 µM
Kd (HLA-B*54:01; [15]): 0.0166 µM

Sequence: GFLNEDHWF
Kd (HLA-A*23:01; source organism: dengue virus type 2): 0.0245 µM

Sequence: RPKILSMINY
Kd (HLA-B*07:02 [4]; [15]): 3.17 µM
Kd (HLA-B*35:01 [5]; [15]): 5.74 µM
Kd (HLA-B*51:01 [6]; [15]): 8.9 µM
Kd (HLA-B*53:01; [15]): 1.12 µM
Kd (HLA-B*54:01; [15]): 2.92 µM

Sequence: TTITGDSAY
Kd (HLA-A*01:01; source organism: Salmonella enterica subsp. enterica serovar Typhi): 4 µM

Sequence: GPQSNQRSA
Kd (HLA-B*07:02 [4]; [16]): 0.365 µM
Kd (HLA-B*35:01 [5]; [16]): 9.79 µM
Kd (HLA-B*51:01 [6]; [16]): 8.09 µM
Kd (HLA-B*53:01; [16]): ≥ 78.2 µM
Kd (HLA-B*54:01; [16]): 5.92 µM

Sequence: KSDDVEGRF
Kd (HLA-C*05:01; source organism: Campylobacter upsaliensis RM3195): ≤ 0.001 µM

Sequence: SMVNGVVRL
Kd (HLA-A*02:11): ≤ 0.001 µM
Kd (HLA-A*02:12): 0.013 µM

Sequence: ITHPKYRKH
Kd (HLA-A*03:01 [2]; source organism: Vibrio vulnificus YJ016): ≥ 20 µM

Sequence: KVHAVLTEH
Kd (HLA-A*03:01 [2]; source organism: Brucella abortus 2308): 0.0944 µM

Sequence: VDYGLVSKF
IC50 (HLA-A*24:02; [15]): 3.51 µM
IC50 (HLA-B*15:01 [1]; [15]): ≥ 278 µM

Sequence: GPMMCPFLF
Kd (HLA-B*07:02 [4]; [17]): 0.143 µM
Kd (HLA-B*35:01 [5]; [17]): 0.767 µM
Kd (HLA-B*51:01 [6]; [17]): 13.5 µM
Kd (HLA-B*53:01; [17]): 0.173 µM
Kd (HLA-B*54:01; [17]): 0.764 µM

Sequence: LPFHRWHTMV
Kd (HLA-B*07:02 [4]; [16]): 0.462 µM
Kd (HLA-B*35:01 [5]; [16]): 7.51 µM
Kd (HLA-B*51:01 [6]; [16]): 1.15 µM
Kd (HLA-B*53:01; [16]): 18.7 µM
Kd (HLA-B*54:01; [16]): 0.0284 µM

Sequence: YGIAAHWSY
Kd (HLA-B*15:17): 0.0032 µM
Kd (HLA-B*57:01): 0.259 µM
Kd (HLA-B*58:01): 0.0475 µM
Kd (HLA-B*35:01 [3]; source organism: Francisella tularensis subsp. tularensis FSC198): ≤ 0.0001 µM

Sequence: QLSNTTGRL
IC50 (HLA-A*02:01; [18]): 4.66 µM
IC50 (HLA-A*24:02; [18]): 30.3 µM
IC50 (HLA-B*15:01 [1]; [18]): 21.8 µM

Sequence: TSADQQSLY
Kd (HLA-A*01:01; source organism: Influenza A virus (A/swine/Quebec/1192/1986(H1))): 0.021 µM

Sequence: TIAGVAGLI
IC50 (HLA-A*02:01; [19]): 6.06 µM
IC50 (HLA-A*24:02; [19]): 2.56 µM
IC50 (HLA-B*15:01 [1]; [19]): ≥ 165 µM

Sequence: PKETFLQSP
IC50 (HLA-A*03:01 [7]; [18]): ≥ 174 µM

Sequence: VLSDINAVF
Kd (HLA-B*15:01 [8]): 0.679 µM
Kd (HLA-C*05:01; [20]): 0.009 µM

Sequence: SFASLFLPK
IC50 (HLA-A*03:01 [7]; [19]): 0.677 µM
IC50 (HLA-A*11:01 [9]; [19]): 0.0815 µM
IC50 (HLA-A*24:02; [19]): ≥ 114 µM

Sequence: MPSEDGAEDL
Kd (HLA-B*07:02 [4]; [21]): 1.86 µM
Kd (HLA-B*35:01 [5]; [21]): 0.148 µM
Kd (HLA-B*51:01 [6]; [21]): ≥ 69.6 µM
Kd (HLA-B*53:01; [21]): 0.903 µM
Kd (HLA-B*54:01; [21]): ≥ 69.9 µM

Sequence: YPITGVKSL
Kd (HLA-B*07:02 [10]): 0.0739 µM
Kd (HLA-B*35:01 [3]; [20]): 0.0002 µM
Kd (HLA-B*51:01 [11]): ≥ 20 µM

Sequence: LPIFSDAAL
Kd (HLA-B*07:02 [4]; [21]): 0.0221 µM
Kd (HLA-B*35:01 [5]; [21]): 0.0133 µM
Kd (HLA-B*51:01 [6]; [21]): ≥ 64.1 µM
Kd (HLA-B*53:01; [21]): 0.0641 µM
Kd (HLA-B*54:01; [21]): 1 µM

Sequence: QLRGEELSF
IC50 (HLA-A*02:01; [18]): ≥ 87 µM
IC50 (HLA-B*15:01 [1]; [18]): 16.8 µM

Sequence: HWLKVWFEW
Kd (HLA-A*23:01; source organism: Vibrio vulnificus CMCP6): 0.121 µM

Sequence: FTSFFYRY
Kd (HLA-A*01:01; source organism: Influenza A virus (A/Fort Monmouth/1/1947-mouse adapted(H1N1))): 1.28 µM

Sequence: LIAATAITH
Kd (HLA-A*03:01 [2]; source organism: Rickettsia felis URRWXCal2): 0.266 µM

Kd (HLA-C*05:01; source organism: Pisum sativum): ≥ 20 µM
Sequence: YKACHNSEL

Sequence: MMYTVSLGK
Kd (HLA-A*03:01 [2]; [22]): 0.0023 µM
Kd (HLA-B*15:42; [22]): ≥ 5 µM
Kd (HLA-B*45:06; [22]): ≥ 5 µM
Kd (HLA-B*83:01; [22]): ≥ 5 µM

Sequence: VPMEKLKAL
Kd (HLA-B*07:02 [4]; [16]): 0.0135 µM
Kd (HLA-B*35:01 [5]; [16]): 6.61 µM
Kd (HLA-B*51:01 [6]; [16]): 2.18 µM
Kd (HLA-B*53:01; [16]): ≥ 39.4 µM
Kd (HLA-B*54:01; [16]): 11.7 µM

Kd (HLA-B*07:02 [4]; [23]): ≥ 69.6 µM
Kd (HLA-B*35:01 [5]; [23]): 0.323 µM
Kd (HLA-B*51:01 [6]; [23]): ≥ 69.6 µM
Kd (HLA-B*53:01; [23]): ≥ 21.2 µM
Kd (HLA-B*54:01; [23]): ≥ 69.9 µM
Sequence: QPYPQSQPQY

Sequence: ALKKLIIDR
IC50 (HLA-A*02:01; [13]): ≥ 166 µM
IC50 (HLA-A*03:01 [7]; [13]): ≥ 83.2 µM
IC50 (HLA-A*24:02; [13]): ≥ 3610 µM
Kd (HLA-A*11:01 [12]): ≥ 56.4 µM
Kd (HLA-A*31:01): 0.00601 µM
Kd (HLA-A*33:01): 1.89 µM
Kd (HLA-A*68:01): 6.04 µM

Sequence: LEDGIYGIF
Kd (HLA-B*18:01): 0.118 µM
Kd (HLA-B*15:42; [24]): ≥ 5 µM
Kd (HLA-B*45:06; [24]): ≥ 5 µM
Kd (HLA-B*83:01; [24]): ≥ 5 µM

Sequence: GKVFAPKQK
IC50 (HLA-A*03:01 [7]; [25]): ≥ 155 µM
IC50 (HLA-A*11:01 [9]; [25]): ≥ 119 µM
IC50 (HLA-A*24:02; [25]): 39.5 µM
